# Results from IntAct's records for PubMed 24980795.
# B1: Probable serine/threonine-protein kinase zyg-1 (Caenorhabditis elegans), Q9GT24 (parent)
# chain: MSGGKSGSRLSAYSHLKEIGKGGFGVVYAAQRENGEKVAIKRIDKKVPKNRVWTEIQTMKELKKSKYVVEFYEDFVEDGYTYIVMELCEGGSLQAYVREHGALDDATAVHVLRQLISAVSFMHRVNVIHRDLSAGNVFIKDSKKKKMTVKLGDFGLATTLGRGETTCTIVGTPGFIAPQVYDQEYTQSADVYSLGAVLYTMLTARNPPPKGLPPTCGMSPNAARLVEQMMDTDAKKRIPLTQIVLSEFMYENTNENAVIFSREHSRDGRRQRSREPVRSSRDDRSRDGRALIRSSSQPAHSGRAPLSNRPIHDRMPSTSSRGFDSERGRERDRDSGRGTVPPSREDRNRSQLWPIRMDRLEGQRVCTAGGRYIVELDTRCRFEVAAQGNFVKRILIVEVDEMVQTVYVHRIPDRTVRGRNGEEELITLTNNPFVYTSYSQMPKEVQNDYMRLQKMVAVTISGRVAKVTFRRPSQFPDAQAQLMENGDLRIKLPRSVIVRKMDNGEIFNCIDGIATQKQAVSGITLTKVNEVYKYLIRFEQCLNGMDRGMVCFPIVFSAGTNMVGSSPSSLMPSGSSQTSRFPFSNLSNNQPSLVPHSAPFLTKPTSSQRASSANVQRRVSTDENSSPSVAPSKYKIKIDPTTQKVRSIQATDGRVLRCSTSKADQFIFTDPAIRPDDQRFMRTDRVPDRASEMLHTLCERMRKLHQ
# partner: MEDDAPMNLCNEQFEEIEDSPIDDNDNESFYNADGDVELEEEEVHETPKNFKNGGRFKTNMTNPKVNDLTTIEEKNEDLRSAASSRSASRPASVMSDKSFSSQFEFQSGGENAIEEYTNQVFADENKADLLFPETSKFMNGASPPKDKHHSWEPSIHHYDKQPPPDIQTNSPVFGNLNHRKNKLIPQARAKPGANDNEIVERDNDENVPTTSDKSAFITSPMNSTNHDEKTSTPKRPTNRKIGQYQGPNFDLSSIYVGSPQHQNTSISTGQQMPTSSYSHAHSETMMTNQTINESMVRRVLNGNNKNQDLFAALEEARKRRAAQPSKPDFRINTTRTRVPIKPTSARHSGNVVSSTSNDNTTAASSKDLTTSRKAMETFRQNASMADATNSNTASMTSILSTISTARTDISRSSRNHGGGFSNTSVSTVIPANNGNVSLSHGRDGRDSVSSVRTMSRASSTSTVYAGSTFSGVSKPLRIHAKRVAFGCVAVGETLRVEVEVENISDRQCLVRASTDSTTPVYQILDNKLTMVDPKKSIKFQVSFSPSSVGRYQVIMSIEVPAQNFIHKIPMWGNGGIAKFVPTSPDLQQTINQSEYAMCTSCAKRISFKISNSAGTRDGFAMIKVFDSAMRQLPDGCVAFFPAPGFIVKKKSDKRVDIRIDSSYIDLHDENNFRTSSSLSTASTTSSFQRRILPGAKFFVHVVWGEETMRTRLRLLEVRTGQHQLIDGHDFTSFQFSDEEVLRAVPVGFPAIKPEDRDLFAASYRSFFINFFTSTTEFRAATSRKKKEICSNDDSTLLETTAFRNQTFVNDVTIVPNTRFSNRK
# B2: Spindle-defective protein 2 (Caenorhabditis elegans), P91870 (parent)
# chain: B1 partner
# partner: B1 chain
# B3: Serine/threonine-protein kinase PLK4 (Mus musculus), Q64702-1 (parent)
# chain: MAACIGERIEDFKVGNLLGKGSFAGVYRAESIHTGLEVAIKMIDKKAMYKAGMVQRVQNEVKIHCQLKHPSVLELYNYFEDNNYVYLVLEMCHNGEMNRYLKNRMKPFSEREARHFMHQIITGMLYLHSHGILHRDLTLSNILLTRNMNIKIADFGLATQLNMPHEKHYTLCGTPNYISPEIATRSAHGLESDIWSLGCMFYTLLIGRPPFDTDTVKNTLNKVVLADYEMPAFLSREAQDLIHQLLRRNPADRLSLSSVLDHPFMSRNPSPKSKDVGTVEDSMDSGHATLSTTITASSGTSLSGSLLDRRLLVGQPLPNKITVFQKNKNSSDFSSGDGSNFCTQWGNPEQEANSRGRGRVIEDAEERPHSRYLRRAHSSDRASPSNQSRAKTYSVERCHSVEMLSKPRRSLDENQHSSNHHCLGKTPFPFADQTPQMEMVQQWFGNLQMNAHLGETNEHHTVSPNRDFQDYPDLQDTLRNAWTDTRASKNADTSANVHAVKQLSAMKYMSAHHHKPEVMPQEPGLHPHSEQSKNRSMESTLGYQKPTLRSITSPLIAHRLKPIRQKTKKAVVSILDSEEVCVELLRECASEGYVKEVLQISSDGTMITVYYPNDGRGFPLADRPPLPTDNISRYSFDNLPEKYWRKYQYASRFIQLVRSKTPKITYFTRYAKCILMENSPGADFEVWFYDGAKIHKTENLIHIIEKTGISYNLKNENEVTSLKEEVKVYMDHANEGHRICLSLESVISEEEKRSRGSSFFPIIVGRKPGNTSSPKALSAPPVDPSCCKGEQASASRLSVNSAAFPTQSPGLSPSTVTVEGLGHTATATGTGVSSSLPKSAQLLKSVFVKNVGWATQLTSGAVWVQFNDGSQLVVQAGVSSISYTSPDGQTTRYGENEKLPEYIKQKLQCLSSILLMFSNPTPNFQ
# Variants of: B1
# Details: with spd2_caeel spd-2, P91870
row,effect of a mutation on the interaction,Variant
1,disrupting interaction strength,R463E
2,disrupting interaction strength,R489E;K491E
3,decreasing interaction strength,R470E
4,disrupting interaction strength,R470E;R471E
5,disrupting interaction strength,K500E
6,decreasing interaction strength,R471E
7,decreasing interaction strength,K454E

# Variants of: B2
# Details: with zyg1_caeel zyg-1, Q9GT24
row,effect of a mutation on the interaction,Variant
1,disrupting interaction strength,E38K;E40K;E41K;E42K;E43K
2,disrupting interaction strength,E12K;E15K;E16K;E18K;D19K

# Variants of: B2
# Details: with zyg1_caeel zyg-1, Q9GT24
# Remark: another data set of the same source
row,effect of a mutation on the interaction,Variant
1,decreasing interaction strength,E38K;E40K;E41K;E42K;E43K
2,decreasing interaction strength,D26K;E28K;D34K;D36K

# Variants of: B3
# Details: with Cep192, E9Q4Y4
# Cep192, E9Q4Y4, sequence (E9Q4Y4 entry or part of it): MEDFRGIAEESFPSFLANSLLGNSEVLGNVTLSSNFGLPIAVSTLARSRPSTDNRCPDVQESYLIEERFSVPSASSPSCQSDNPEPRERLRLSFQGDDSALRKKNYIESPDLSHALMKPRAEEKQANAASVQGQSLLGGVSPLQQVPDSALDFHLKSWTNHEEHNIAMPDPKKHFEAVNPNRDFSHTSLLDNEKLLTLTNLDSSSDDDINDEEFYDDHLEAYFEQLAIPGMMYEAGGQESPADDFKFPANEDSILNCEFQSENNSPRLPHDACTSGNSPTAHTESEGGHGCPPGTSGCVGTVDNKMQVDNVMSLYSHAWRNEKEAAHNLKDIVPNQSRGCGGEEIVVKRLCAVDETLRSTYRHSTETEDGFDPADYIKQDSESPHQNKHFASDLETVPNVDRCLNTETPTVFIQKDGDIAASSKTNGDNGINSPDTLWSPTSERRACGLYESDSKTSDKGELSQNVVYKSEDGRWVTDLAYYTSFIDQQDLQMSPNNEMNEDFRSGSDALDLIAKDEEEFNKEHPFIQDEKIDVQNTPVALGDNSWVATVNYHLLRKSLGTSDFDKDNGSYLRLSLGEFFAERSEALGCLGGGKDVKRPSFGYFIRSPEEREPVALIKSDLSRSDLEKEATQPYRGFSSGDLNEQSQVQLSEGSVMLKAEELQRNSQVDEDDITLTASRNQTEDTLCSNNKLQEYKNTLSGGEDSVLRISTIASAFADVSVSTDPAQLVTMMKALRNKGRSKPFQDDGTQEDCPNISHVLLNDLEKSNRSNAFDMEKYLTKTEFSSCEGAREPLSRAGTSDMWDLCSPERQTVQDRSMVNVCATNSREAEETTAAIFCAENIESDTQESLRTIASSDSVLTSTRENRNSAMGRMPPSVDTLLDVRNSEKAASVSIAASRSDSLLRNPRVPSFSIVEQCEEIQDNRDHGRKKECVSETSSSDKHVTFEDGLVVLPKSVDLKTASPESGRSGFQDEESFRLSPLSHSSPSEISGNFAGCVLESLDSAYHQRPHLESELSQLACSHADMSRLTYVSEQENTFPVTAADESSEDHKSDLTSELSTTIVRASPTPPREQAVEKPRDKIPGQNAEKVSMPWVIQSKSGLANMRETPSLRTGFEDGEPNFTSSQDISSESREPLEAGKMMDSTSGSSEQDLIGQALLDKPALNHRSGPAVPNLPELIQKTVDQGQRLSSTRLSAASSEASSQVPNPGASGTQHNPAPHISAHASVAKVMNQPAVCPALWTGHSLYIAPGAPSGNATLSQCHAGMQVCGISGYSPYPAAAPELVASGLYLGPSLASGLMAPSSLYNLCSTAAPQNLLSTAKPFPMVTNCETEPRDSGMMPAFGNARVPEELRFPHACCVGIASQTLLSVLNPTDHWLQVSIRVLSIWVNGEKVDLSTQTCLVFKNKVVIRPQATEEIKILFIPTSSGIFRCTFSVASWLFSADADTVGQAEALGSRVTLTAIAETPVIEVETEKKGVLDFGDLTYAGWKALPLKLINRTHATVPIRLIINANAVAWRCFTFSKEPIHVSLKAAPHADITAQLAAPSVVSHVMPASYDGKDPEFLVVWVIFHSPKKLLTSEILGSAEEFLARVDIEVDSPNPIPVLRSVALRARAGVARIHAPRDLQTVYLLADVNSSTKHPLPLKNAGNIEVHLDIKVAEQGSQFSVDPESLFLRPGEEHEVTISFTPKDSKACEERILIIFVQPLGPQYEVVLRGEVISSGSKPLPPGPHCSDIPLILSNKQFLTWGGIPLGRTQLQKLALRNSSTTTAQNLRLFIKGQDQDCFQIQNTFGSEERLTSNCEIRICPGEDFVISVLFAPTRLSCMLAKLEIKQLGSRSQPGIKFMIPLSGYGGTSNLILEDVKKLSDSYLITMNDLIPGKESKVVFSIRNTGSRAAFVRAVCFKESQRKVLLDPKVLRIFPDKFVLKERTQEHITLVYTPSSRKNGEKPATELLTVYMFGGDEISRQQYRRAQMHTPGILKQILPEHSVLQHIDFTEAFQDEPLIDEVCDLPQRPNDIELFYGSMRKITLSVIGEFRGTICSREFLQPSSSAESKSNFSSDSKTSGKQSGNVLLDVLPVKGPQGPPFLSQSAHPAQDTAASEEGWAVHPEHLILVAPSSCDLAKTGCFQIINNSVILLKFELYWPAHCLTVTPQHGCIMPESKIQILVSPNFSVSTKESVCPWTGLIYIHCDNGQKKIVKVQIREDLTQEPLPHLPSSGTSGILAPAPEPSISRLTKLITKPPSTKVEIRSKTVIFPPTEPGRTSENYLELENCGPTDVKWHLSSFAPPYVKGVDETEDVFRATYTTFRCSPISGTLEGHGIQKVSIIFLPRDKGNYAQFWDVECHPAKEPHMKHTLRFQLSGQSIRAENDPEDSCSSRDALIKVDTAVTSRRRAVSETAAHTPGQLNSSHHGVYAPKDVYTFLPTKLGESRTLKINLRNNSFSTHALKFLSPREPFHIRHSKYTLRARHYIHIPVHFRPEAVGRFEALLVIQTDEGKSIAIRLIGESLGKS
row,effect of a mutation on the interaction,Variant
1,decreasing interaction strength,K672E
2,decreasing interaction strength,R766E;K767E
3,increasing interaction strength,R564E;K566E
4,decreasing interaction strength,K693E
5,increasing interaction strength,K660E

# Variants of: B3
# Details: with ce152_mouse Cep152, A2AUM9
# ce152_mouse Cep152, A2AUM9, sequence (A2AUM9 whole entry): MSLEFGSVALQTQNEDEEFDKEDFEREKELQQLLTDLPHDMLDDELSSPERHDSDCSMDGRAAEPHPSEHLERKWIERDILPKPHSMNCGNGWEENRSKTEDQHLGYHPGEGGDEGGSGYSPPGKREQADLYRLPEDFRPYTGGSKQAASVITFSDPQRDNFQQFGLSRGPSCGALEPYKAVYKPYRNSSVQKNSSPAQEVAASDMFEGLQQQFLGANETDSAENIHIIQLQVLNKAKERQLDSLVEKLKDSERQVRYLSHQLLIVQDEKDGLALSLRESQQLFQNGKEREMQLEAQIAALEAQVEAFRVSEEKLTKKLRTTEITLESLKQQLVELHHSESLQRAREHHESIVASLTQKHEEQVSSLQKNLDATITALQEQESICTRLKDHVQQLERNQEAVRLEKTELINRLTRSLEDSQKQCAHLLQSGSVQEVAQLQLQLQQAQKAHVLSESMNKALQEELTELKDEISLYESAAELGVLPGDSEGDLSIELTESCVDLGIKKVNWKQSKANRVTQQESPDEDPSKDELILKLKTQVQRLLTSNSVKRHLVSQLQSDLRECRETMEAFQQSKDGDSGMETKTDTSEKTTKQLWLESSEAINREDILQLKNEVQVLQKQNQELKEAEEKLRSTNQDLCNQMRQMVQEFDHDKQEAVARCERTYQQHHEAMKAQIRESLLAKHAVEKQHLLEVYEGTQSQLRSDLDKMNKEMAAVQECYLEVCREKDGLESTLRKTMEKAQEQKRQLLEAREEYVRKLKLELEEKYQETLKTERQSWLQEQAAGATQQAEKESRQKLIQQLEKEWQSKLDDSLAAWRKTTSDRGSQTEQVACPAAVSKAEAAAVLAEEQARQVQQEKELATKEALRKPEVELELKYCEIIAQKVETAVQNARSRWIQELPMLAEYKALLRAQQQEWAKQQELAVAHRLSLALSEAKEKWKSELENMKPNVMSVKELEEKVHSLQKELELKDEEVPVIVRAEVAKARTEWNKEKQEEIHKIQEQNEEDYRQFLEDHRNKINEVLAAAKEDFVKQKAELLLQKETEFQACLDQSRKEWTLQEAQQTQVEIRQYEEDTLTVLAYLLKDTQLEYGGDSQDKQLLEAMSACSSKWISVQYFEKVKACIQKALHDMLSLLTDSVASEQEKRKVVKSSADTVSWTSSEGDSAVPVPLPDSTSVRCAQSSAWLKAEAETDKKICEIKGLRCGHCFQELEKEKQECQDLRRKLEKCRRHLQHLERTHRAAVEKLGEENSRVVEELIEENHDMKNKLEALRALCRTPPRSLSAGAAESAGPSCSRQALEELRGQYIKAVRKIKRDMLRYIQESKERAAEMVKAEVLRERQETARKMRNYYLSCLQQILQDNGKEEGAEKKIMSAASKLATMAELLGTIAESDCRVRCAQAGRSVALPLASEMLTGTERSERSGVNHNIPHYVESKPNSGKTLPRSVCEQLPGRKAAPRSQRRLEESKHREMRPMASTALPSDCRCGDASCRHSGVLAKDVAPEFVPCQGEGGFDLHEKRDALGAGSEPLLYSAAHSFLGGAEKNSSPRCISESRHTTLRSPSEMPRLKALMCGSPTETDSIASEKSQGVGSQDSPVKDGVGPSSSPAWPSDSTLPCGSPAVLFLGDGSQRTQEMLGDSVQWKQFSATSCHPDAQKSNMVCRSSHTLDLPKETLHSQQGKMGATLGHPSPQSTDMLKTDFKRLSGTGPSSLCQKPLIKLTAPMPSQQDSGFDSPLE
row,effect of a mutation on the interaction,Variant
1,decreasing interaction strength,K672E
2,decreasing interaction strength,R766E;K767E
3,decreasing interaction strength,K693E
4,increasing interaction strength,K568E;K569E
5,decreasing interaction strength,K660E
6,decreasing interaction strength,R652E
